Source: patent publication US20040086519A1

Molecular target: P-selectin (pig)
Assay: cell-based or functional assay

soluble P-selectin glycoprotein ligand-1 (PSGL-1) chimera (rPSGL-Ig) (from UniProt Q14242 42-305) (Fc fusion)
decrease in adhesion of 51Cr-platelets to deeply injured arterial segments 1 week following repeat angioplasty (pigs, in vivo): 85%
decrease in adhesion of 111In-neutrophils to deeply injured arterial segments 1 week following repeat angioplasty (pigs, in vivo): 75%
decrease in neutrophil adhesion at stented coronary sites 4 weeks after stenting (pigs, in vivo): 49%
decrease in platelet adhesion at stented coronary sites 4 weeks after stenting (pigs, in vivo): 39%
